Measurements published in US6713443B1, “Compounds which modify serotoninergic transmission, diagnostic and therapeutic applications” (Institut Pasteur, priority 1993, dated 2004).
Blank lines part the entries; values can stand above or below the molecule they belong to. No end group written: not given here.

What was measured:
5-HT1B/D receptors [1] = assay: Relative activity at 1 nM, [3H]5-HT binding; settings: 1 nM peptide or amino acid, 30 nM [3H]5-HT
Experimental: (§1) The binding experiments were performed as described above. […] Each value corresponds to the mean ± the standard deviation of three independent tests performed in quintuplicate.

5-HT1B/D receptors [2] = assay: Relative activity at 1 nM, [125I]cyanopindolol binding; settings: 1 nM peptide or amino acid, 0.3 nM [125I]cyanopindolol
Experimental: as §1

mouse = assay: Forced swimming test (Porsolt); type: in vivo; settings: reference antidepressants
Source text: The forced swimming test (Porsolt) is a simple test which cannot, under any circumstances, be assimilated with a model of “depression”.

5-HT1B/1D receptors [3] = assay: inhibition of 30 nM [3H]5-HT binding, 1 nM peptide
[4] = molecular target: T1, 5-HT1B receptor of rat brain (rat, UniProt P28564 1-386); assay: inhibition of 0.3 nM [125I]cyanopindolol binding, 1 nM peptide
T1 construct: whole, on cells

5-HT1B/1D receptors [5] = assay: inhibition of [3H]5-HT or [125I]cyanopindolol binding to 5-HT1B/1D type receptors
5-HT1B/1D type receptors = assay: Binding of [3H]5-HT or [125I]cyanopindolol to 5-HT1B/1D type receptors (short peptides)
5-HT receptor = assay: Ligand activity of modified LSAL peptides on the 5-HT receptor; type: binding
5-HT1B/1D receptors [6] = assay: cell-based or functional assay
5-HT1 receptors [7] = assay: inhibition of [3H]5-HT binding to 5-HT1 receptors
5-HT1B/1D receptors [8] = assay: inhibition of [3H]5-HT binding to 5-HT1nonA sites
[9] = molecular target: T2, 5-HT1D receptors in guinea pigs (guinea pig, UniProt Q60484 1-376); assay: inhibition of [3H]5-HT binding to 5-HT1D receptors, guinea pig
T2 construct: Native tissue; preparation not described

[10] = molecular target: T3, 5-HT1D receptors of human brain (human, UniProt P28221 1-377); assay: inhibition of [3H]5-HT binding to 5-HT1D receptors, human brain
T3 construct: whole, on cells; Native tissue; preparation not described

5-HT1 receptors [11] = assay: inhibition of [3H]5-HT binding to 5-HT1 receptors, 10^-9 M peptide
[12] = molecular target: 5-HT2A receptor of rat brain (rat) (UniProt P14842); assay: radioligand binding, rat brain membranes, [3H]DOB (5 nM), 1 nM peptide
[13] = molecular target: opiate receptors of rat brain; assay: radioligand binding, rat brain membranes, [3H]naloxone (2 nM), 1 nM peptide
[14] = molecular target: α1 adrenergic receptors of rat brain; assay: radioligand binding, rat brain membranes, [3H]prazosin (2 nM), 1 nM peptide
[15] = molecular target: 5-HT1A receptors of rat brain (rat) (UniProt P19327); assay: radioligand binding, rat brain membranes, [3H]8-OH-DPAT (3 nM), 1 nM peptide
[16] = molecular target: 5-HT3 receptor of rat brain (rat) (UniProt P35563); assay: radioligand binding, rat brain membranes, [3H]BRL 43694 (3 nM), 1 nM peptide
[17] = molecular target: T1, 5-HT1B receptor of rat brain; assay: inhibition of [125I]cyanopindolol binding, rat cerebral tissue homogenates
[18] = molecular target: 5-HT2A receptor of rat brain (rat) (UniProt P14842); assay: radioligand binding, rat brain membranes, [3H]ketanserin (5 nM), 1 nM peptide
[19] = molecular target: H1 histaminergic receptor of rat brain (rat) (UniProt P31390); assay: radioligand binding, rat brain membranes, [3H]mepyramine (5 nM), 1 nM peptide
[20] = molecular target: benzodiazepine receptors of rat brain; assay: radioligand binding, rat brain membranes, [3H]flunitrazepam (3 nM), 1 nM peptide
5-HT1EFC = assay: radioligand binding, rat brain membranes, [3H]5-HT (30 nM) + 20 nM 5-CT, 1 nM peptide
[21] = molecular target: D2 dopaminergic receptor of rat brain (rat) (UniProt P61169); assay: radioligand binding, rat brain membranes, [3H]epiperone (2 nM) + 10 µM 5-HT, 1 nM peptide
[22] = molecular target: muscarinic receptors of rat brain; assay: radioligand binding, rat brain membranes, [3H]quinuclidinyl benzilate (3 nM), 1 nM peptide
5-HT1B/1D receptors [23] = assay: radioligand binding, rat brain membranes, [3H]5-HT (30 nM) + 0.1 µM 8-OH-DPAT, 1 nM peptide
[24] = molecular target: β adrenergic receptors of rat brain; assay: radioligand binding, rat brain membranes, [3H]dihydroalprenolol (3 nM) + 5-HT, 1 nM peptide

T1 sequence (P28564 whole entry): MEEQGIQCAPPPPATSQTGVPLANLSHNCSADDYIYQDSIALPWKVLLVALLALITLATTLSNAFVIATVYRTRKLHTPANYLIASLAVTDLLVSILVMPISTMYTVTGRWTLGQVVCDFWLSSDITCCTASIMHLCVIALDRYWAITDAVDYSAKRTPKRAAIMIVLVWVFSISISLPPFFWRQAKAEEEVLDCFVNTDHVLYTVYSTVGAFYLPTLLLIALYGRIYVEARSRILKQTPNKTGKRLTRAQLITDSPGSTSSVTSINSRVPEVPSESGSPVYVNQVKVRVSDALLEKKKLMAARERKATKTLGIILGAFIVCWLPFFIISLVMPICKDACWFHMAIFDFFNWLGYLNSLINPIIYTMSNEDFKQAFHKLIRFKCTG
Chain of 5-HT2A receptor of rat brain (rat) (P14842 whole entry): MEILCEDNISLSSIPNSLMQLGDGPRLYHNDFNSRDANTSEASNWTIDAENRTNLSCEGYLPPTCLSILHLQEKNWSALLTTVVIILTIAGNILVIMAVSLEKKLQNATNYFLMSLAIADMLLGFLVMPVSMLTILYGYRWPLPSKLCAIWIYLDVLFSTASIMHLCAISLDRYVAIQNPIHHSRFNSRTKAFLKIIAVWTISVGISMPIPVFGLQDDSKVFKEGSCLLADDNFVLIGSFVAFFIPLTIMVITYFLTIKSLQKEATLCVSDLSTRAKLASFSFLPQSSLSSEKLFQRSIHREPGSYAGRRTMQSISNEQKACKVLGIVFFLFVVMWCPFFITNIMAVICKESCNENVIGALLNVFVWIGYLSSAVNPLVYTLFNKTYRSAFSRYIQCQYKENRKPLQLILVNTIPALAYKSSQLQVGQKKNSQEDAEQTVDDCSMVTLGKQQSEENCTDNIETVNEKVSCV
Chain of H1 histaminergic receptor of rat brain (rat) (P31390 whole entry): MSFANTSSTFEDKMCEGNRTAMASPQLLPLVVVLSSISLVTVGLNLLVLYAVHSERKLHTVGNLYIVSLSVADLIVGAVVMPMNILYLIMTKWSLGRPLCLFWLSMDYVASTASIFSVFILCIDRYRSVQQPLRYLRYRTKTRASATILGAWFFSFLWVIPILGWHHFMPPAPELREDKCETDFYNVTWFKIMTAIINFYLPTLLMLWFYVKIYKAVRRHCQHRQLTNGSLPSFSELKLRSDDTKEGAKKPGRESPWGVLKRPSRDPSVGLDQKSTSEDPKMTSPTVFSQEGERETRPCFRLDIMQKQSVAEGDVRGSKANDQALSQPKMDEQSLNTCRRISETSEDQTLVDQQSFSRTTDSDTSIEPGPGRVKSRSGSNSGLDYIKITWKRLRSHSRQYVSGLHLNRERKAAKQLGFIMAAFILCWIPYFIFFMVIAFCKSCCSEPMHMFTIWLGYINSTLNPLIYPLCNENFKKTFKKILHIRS
T3 sequence (P28221 whole entry): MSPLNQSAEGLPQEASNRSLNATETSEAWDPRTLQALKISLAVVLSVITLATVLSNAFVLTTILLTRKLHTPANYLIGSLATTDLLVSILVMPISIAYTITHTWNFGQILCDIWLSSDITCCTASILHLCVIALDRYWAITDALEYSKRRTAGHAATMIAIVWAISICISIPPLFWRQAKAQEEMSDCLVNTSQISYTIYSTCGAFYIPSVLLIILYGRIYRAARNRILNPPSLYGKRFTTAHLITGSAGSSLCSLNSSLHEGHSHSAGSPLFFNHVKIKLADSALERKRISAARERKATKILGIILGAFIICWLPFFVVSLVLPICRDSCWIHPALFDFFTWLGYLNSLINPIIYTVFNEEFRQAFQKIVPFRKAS
Chain of D2 dopaminergic receptor of rat brain (rat) (P61169 whole entry): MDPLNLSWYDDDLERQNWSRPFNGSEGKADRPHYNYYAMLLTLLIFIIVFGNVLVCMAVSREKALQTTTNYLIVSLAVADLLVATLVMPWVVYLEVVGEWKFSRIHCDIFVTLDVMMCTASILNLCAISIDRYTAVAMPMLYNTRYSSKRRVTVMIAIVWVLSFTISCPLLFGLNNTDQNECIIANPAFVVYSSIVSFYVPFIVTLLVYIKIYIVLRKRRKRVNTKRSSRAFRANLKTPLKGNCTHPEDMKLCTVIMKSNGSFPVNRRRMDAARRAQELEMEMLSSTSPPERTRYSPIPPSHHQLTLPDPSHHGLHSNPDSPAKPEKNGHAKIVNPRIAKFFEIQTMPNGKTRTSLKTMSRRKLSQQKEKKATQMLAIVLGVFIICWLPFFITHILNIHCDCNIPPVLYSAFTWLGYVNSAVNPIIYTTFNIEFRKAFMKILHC
Chain of 5-HT3 receptor of rat brain (rat) (P35563 24-483): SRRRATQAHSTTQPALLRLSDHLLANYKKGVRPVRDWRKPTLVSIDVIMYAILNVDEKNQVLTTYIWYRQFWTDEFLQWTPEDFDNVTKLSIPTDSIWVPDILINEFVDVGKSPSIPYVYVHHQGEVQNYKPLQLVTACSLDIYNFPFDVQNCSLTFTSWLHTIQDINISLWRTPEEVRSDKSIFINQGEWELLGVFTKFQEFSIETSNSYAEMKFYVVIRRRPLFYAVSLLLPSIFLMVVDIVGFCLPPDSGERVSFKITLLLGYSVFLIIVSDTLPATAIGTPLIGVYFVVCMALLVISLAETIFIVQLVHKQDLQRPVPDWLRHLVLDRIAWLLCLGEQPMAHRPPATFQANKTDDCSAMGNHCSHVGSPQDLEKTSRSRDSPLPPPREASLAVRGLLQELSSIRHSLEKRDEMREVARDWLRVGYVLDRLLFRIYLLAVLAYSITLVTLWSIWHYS
Chain of 5-HT1A receptors of rat brain (rat) (P19327 whole entry): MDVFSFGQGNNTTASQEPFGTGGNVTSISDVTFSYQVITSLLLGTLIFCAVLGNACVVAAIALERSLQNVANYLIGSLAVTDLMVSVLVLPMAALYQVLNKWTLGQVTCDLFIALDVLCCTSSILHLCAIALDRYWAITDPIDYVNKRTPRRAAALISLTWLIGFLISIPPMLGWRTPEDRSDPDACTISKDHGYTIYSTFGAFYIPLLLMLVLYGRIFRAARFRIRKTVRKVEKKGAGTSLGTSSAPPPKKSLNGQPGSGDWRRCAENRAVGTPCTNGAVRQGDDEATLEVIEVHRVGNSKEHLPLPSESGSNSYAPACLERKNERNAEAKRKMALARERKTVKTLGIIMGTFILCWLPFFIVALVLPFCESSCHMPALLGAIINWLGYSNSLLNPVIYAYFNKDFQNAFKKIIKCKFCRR
T2 sequence (Q60484 whole entry): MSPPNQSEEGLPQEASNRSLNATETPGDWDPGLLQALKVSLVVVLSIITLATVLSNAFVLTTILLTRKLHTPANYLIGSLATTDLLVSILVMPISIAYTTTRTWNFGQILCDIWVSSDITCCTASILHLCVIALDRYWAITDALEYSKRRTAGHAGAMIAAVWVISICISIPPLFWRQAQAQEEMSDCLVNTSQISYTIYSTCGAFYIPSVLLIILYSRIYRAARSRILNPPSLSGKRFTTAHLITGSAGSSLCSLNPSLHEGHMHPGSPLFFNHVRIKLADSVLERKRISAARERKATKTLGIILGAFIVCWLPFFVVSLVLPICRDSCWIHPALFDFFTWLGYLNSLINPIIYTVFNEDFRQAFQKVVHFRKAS

Molecule: C[C@H](N)C(=O)O [ALA]
- RELATIVE POTENCY, Receptors 5-HT1B/D ([3H]5-HT) (5-HT1B/D receptors [1]): 0 ± 4 percentage of the LSAL effect
- RELATIVE POTENCY, Receptors 5-HT1B/D ([125I]-cyanopindolol) (5-HT1B/D receptors [2]): 1.7 ± 1.68 percentage of the LSAL effect

Molecule: CC(C)C[C@H](N)C(=O)O [LEU]
- RELATIVE POTENCY, Receptors 5-HT1B/D ([3H]5-HT) (5-HT1B/D receptors [1]): 2 ± 9 percentage of the LSAL effect
- RELATIVE POTENCY, Receptors 5-HT1B/D ([125I]-cyanopindolol) (5-HT1B/D receptors [2]): 0 ± 2 percentage of the LSAL effect

Molecule: CN1Cc2c(N)cccc2C(c2ccccc2)C1 (stereo not shown) [nomifensine]
- activity in the forced swimming test compared with the peptide (mouse): much more effective than the peptide

Molecule: AC-LEU-SER-ALA-LEU
- RELATIVE POTENCY, Receptors 5-HT1B/D ([3H]5-HT) (5-HT1B/D receptors [1]): 26.7 ± 10 percentage of the LSAL effect

Molecule: AC-LEU-SER-ALA-LEU (peptide)
- relative potency (% of the LSAL effect) (% of the LSAL effect) (5-HT1B/1D receptors [3]): 26.7

Molecule: Ala-Leu-Leu-Ser (ALLS; printed: ALA-LEU-LEU-SER) [comparison peptide]
- activity on binding to the 5-HT1B/1D type receptors (5-HT1B/1D type receptors): inactive
- RELATIVE POTENCY, Receptors 5-HT1B/D ([3H]5-HT) (5-HT1B/D receptors [1]): 10 ± 15 percentage of the LSAL effect
- RELATIVE POTENCY, Receptors 5-HT1B/D ([125I]-cyanopindolol) (5-HT1B/D receptors [2]): 23.6 ± 10.6 percentage of the LSAL effect

Molecule: Ala-Leu-Ser (ALS)
- IC50 (5-HT1B/1D type receptors): 1000 nM
- RELATIVE POTENCY, Receptors 5-HT1B/D ([3H]5-HT) (5-HT1B/D receptors [1]): 28 ± 10 percentage of the LSAL effect
- RELATIVE POTENCY, Receptors 5-HT1B/D ([125I]-cyanopindolol) (5-HT1B/D receptors [2]): 33.8 ± 10 percentage of the LSAL effect

Molecule: Ala-Leu-Ser (peptide)
- relative potency (% of the LSAL effect) (% of the LSAL effect) (5-HT1B/1D receptors [3]): 28
- relative potency (% of the LSAL effect) (% of the LSAL effect) [4]: 33.8
- IC50 (5-HT1B/1D receptors [5]): 1000 nM

Molecule: LEU-ALA (peptide)
- relative potency (% of the LSAL effect) (% of the LSAL effect) (5-HT1B/1D receptors [3]): 1
- relative potency (% of the LSAL effect) (% of the LSAL effect) [4]: 1.7

Molecule: LSALGGGY
- RELATIVE POTENCY, Receptors 5-HT1B/D ([3H]5-HT) (5-HT1B/D receptors [1]): 80.9 ± 9.5 percentage of the LSAL effect
- ligand activity on the 5-HT receptor (5-HT receptor): still having a substantial activity

Molecule: Leu-Ser (peptide)
- relative potency (% of the LSAL effect) (% of the LSAL effect) (5-HT1B/1D receptors [3]): 45.7
- relative potency (% of the LSAL effect) (% of the LSAL effect) [4]: 53.8
- IC50 (5-HT1B/1D receptors [5]): 10000 nM

Molecule: Leu-Ser-Ala-Leu-NH2
- RELATIVE POTENCY, Receptors 5-HT1B/D ([3H]5-HT) (5-HT1B/D receptors [1]): 83.3 ± 16 percentage of the LSAL effect

Molecule: SER-LEU (peptide)
- relative potency (% of the LSAL effect) (% of the LSAL effect) (5-HT1B/1D receptors [3]): 4

Molecule: β-ALA-LEU (peptide)
- relative potency (% of the LSAL effect) (% of the LSAL effect) (5-HT1B/1D receptors [3]): 0

Molecule: LSAL (also called LSAL; the peptide) [Leu-Ser-Ala-Leu]
- K+-induced liberation of [3H]5-HT from rat brain hippocampus synaptosomes, apparent IC50 (5-HT1B/1D receptors [6]): 0.01 nM
- relative potency (% of the LSAL effect) (% of the LSAL effect) (5-HT1B/1D receptors [3]): 100
- IC50 (5-HT1 receptors [7]): 0.01 nM
- IC50 (5-HT1B/1D receptors [8]): 0.01 nM
- IC50 [9]: 0.01 nM
- IC50 [10]: 0.01 nM
- maximum inhibitory effect (5-HT1 receptors [11]): 30 to 50%
- inhibitory effect as % of the control (% of the control) [12]: 2
- inhibitory effect as % of the control (% of the control) [13]: 10
- inhibitory effect as % of the control (% of the control) [14]: 5
- inhibitory effect as % of the control (% of the control) [15]: 0
- inhibitory effect as % of the control (% of the control) [16]: 0
- IC50 [17]: 0.01 nM
- inhibitory effect as % of the control (% of the control) [18]: 10
- inhibitory effect as % of the control (% of the control) [19]: 10
- inhibitory effect as % of the control (% of the control) [20]: 2
- inhibitory effect as % of the control (% of the control) (5-HT1EFC): 0
- inhibitory effect as % of the control (% of the control) [21]: 2
- inhibitory effect as % of the control (% of the control) [22]: 0
- inhibitory effect as % of the control (% of the control) (5-HT1B/1D receptors [23]): 75
- inhibitory effect as % of the control (% of the control) [24]: 10

Further lines, results first:

- RELATIVE POTENCY, Receptors 5-HT1B/D ([3H]5-HT) (5-HT1B/D receptors [1]): 0 ± 5 percentage of the LSAL effect
- RELATIVE POTENCY, Receptors 5-HT1B/D ([125I]-cyanopindolol) (5-HT1B/D receptors [2]): 0 ± 1.7 percentage of the LSAL effect
Molecule: N[C@@H](CO)C(=O)O [SER]

- relative potency (% of the LSAL effect) (% of the LSAL effect) (5-HT1B/1D receptors [3]): 50
- relative potency (% of the LSAL effect) (% of the LSAL effect) [4]: 61.5
- IC50 (5-HT1B/1D receptors [5]): 1000 nM
Molecule: Ala-Leu (peptide)

- relative potency (% of the LSAL effect) (% of the LSAL effect) (5-HT1B/1D receptors [3]): 10
- relative potency (% of the LSAL effect) (% of the LSAL effect) [4]: 23.6
Molecule: Ala-Leu-Leu-Ser (peptide)

- relative potency (% of the LSAL effect) (% of the LSAL effect) (5-HT1B/1D receptors [3]): 0
Molecule: D-ALA-LEU (peptide)

- relative potency (% of the LSAL effect) (% of the LSAL effect) (5-HT1B/1D receptors [3]): 83.3
Molecule: LEU-SER-ALA-LEU-NH2 (peptide)

- relative potency (% of the LSAL effect) (% of the LSAL effect) (5-HT1B/1D receptors [3]): 2
Molecule: β-ALA-DL-LEU (peptide)

- relative potency (% of the LSAL effect) (% of the LSAL effect) (5-HT1B/1D receptors [3]): 80.9
Molecule: LSALGGGY [Leu-Ser-Ala-Leu-Gly-Gly-Gly-Tyr]
